The values that follow come from publication PMC10397247.

Holding throughout (assay): two-hybrid library CCNG1;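 also: natural log of median RNA to DNA barcode read ratio; higher means stronger binding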
Assay [1] deals with T1, P4A-bA.
T1 chain: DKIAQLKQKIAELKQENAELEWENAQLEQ

The target in assay [2] is T2, P5A-bA.
T2 chain: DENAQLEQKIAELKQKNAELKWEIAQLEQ

Assay [3] has as its target T3, P6A-bA.
T3 chain: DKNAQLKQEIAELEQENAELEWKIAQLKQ

The target in assay [4] is T4, P7A-bA.
T4 chain: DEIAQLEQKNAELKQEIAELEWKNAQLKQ

Assay [5] addresses T5, P8A-bA.
T5 chain: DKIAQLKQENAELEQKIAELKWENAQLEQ

Assay [6] has as its target T6, P9A-bA.
T6 chain: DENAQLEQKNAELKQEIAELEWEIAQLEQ

For assay [7], the target named is T7, 4H2473-bN.
T7 chain: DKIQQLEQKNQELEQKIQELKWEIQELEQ

Assay [8] addresses T8, 4H2503-bN.
T8 chain: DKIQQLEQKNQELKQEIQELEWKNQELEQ

For assay [9], the target named is T9, 4H2588-bN.
T9 chain: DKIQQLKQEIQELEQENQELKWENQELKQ

In assay [10] the target is T10, 4H2673-bH.
T10 chain: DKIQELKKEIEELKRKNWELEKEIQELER

Assay [11] addresses T11, 4H2692-bN.
T11 chain: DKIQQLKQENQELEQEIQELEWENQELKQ

Assay [12] has as its target T12, 4H2717-bN.
T12 chain: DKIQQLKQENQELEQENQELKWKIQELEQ

Assay [13] concerns the target T13, 4H2839-bN.
T13 chain: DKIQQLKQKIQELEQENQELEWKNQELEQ

The target of assay [14] is T14, 4H2915-bN.
T14 chain: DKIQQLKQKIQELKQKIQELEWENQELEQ

Assay [15] concerns the target T15, 4H3057-bN.
T15 chain: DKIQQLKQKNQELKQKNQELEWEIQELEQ

The target of assay [16] is T16, 4H319-bN.
T16 chain: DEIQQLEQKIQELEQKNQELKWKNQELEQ

Assay [17] concerns the target T17, 4H3277-bN.
T17 chain: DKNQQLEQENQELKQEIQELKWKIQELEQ

Assay [18] deals with T18, 4H348-bN.
T18 chain: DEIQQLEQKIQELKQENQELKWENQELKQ

The target in assay [19] is T19, 4H40-bN.
T19 chain: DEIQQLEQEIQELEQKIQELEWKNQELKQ

The target in assay [20] is T20, 4H477-bN.
T20 chain: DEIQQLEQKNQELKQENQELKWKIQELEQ

The target in assay [21] is T21, 4H492-bN.
T21 chain: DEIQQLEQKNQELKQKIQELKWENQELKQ

Assay [22] deals with T22, 4H741-bN.
T22 chain: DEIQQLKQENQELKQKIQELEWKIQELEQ

In assay [23] the target is T23, 4H2576-bA.
T23 chain: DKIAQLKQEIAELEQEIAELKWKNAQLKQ

In assay [24] the target is T24, 4H2610-bA.
T24 chain: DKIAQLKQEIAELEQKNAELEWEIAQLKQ

In assay [25] the target is T25, 4H2618-bA.
T25 chain: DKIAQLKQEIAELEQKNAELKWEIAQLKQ

Assay [26] deals with T26, 4H2667-bA.
T26 chain: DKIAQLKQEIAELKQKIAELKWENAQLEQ

Assay [27] concerns the target T27, 4H2697-bA.
T27 chain: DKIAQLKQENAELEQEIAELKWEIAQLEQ

The target in assay [28] is T28, 4H2717-bA.
T28 chain: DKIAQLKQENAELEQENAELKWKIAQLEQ

Assay [29] concerns the target T29, 4H2729-bA.
T29 chain: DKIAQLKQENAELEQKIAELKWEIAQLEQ

Assay [30] has as its target T30, 4H2760-bN.
T30 chain: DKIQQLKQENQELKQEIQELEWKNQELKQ

The target in assay [31] is T31, 4H3057-bA.
T31 chain: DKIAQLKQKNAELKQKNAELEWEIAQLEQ

The target of assay [32] is T32, 4H3112-bA.
T32 chain: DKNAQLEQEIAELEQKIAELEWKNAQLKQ

In assay [33] the target is T33, 4H3185-bA.
T33 chain: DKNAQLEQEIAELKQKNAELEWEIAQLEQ

Assay [34] deals with T34, 4H3189-bA.
T34 chain: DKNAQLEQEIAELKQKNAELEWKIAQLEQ

For assay [35], the target named is T35, 4H331-bA.
T35 chain: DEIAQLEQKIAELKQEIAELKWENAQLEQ

Assay [36] has as its target T36, 4H3354-bA.
T36 chain: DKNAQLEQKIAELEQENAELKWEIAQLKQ

For assay [37], the target named is T37, 4H338-bA.
T37 chain: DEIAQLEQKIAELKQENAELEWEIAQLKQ

Assay [38] concerns the target T38, 4H3427-bA.
T38 chain: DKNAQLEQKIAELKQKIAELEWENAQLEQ

The target in assay [39] is T39, 4H3606-bA.
T39 chain: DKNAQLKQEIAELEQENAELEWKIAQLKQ

Assay [40] addresses T40, 4H370-bA.
T40 chain: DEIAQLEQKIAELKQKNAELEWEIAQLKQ

Assay [41] concerns the target T41, 4H3782-bA.
T41 chain: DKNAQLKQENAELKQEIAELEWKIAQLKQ

In assay [42] the target is T42, 4H3843-bA.
T42 chain: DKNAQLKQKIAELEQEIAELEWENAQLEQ

For assay [43], the target named is T43, 4H3855-bA.
T43 chain: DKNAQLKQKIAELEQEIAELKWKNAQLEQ

In assay [44] the target is T44, 4H4001-bA.
T44 chain: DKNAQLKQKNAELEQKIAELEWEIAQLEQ

For assay [45], the target named is T45, 4H454-bA.
T45 chain: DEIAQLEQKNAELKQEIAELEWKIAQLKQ

The target in assay [46] is T46, 4H462-bA.
T46 chain: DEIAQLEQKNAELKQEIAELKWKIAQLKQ

Assay [47] addresses T47, 4H568-bA.
T47 chain: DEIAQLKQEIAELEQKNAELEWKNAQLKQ

Assay [48] has as its target T48, 4H607-bA.
T48 chain: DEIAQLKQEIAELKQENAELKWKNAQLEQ

The target of assay [49] is T49, 4H687-bA.
T49 chain: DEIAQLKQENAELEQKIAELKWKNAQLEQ

Assay [50] has as its target T50, 4H717-bA.
T50 chain: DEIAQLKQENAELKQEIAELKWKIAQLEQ

The target of assay [51] is T51, 4H72-bA.
T51 chain: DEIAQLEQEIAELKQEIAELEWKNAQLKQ

Assay [52] concerns the target T52, 4H754-bA.
T52 chain: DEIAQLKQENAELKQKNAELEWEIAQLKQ

For assay [53], the target named is T53, 4H797-bA.
T53 chain: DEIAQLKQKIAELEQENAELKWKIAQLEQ

For assay [54], the target named is T54, 4H883-bA.
T54 chain: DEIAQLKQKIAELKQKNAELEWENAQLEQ

Assay [55] has as its target T55, 4H908-bA.
T55 chain: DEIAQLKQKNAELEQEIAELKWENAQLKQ

Assay [56] concerns the target T56, 4H918-bA.
T56 chain: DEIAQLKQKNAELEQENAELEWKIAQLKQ

Assay [57] addresses T57, 4H953-bA.
T57 chain: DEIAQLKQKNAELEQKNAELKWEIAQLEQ

In assay [58] the target is T58, 4H967-bA.
T58 chain: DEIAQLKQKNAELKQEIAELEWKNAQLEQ

Take DKIAQLKQKIAELKQENAELEWENAQLEQ [P4A-bA]: the interaction score was -0.883 in assay [1]; -1.23 in [2]; -2.07 in assay [3]; -1.25 in assay [4]; -0.955 in assay [5]; -0.899 in assay [6].
DKIQQLEQKNQELEQKIQELKWEIQELEQ [4H2473-bN]: the interaction score in assay [7] was 0.273; in assay [8], -1.11; in [9], -1.58; in assay [10], 0.46; in assay [11], -0.666; in assay [12] it was -2.13. In addition, the interaction score was -1.21 in [13]; 0.258 in assay [14]; -0.442 in assay [15]; -0.961 in assay [16]; -1.47 in [17]; -0.231 in [18]. The interaction score in assay [19] is -0.598; in assay [20] it was -0.81; in assay [21], -0.992; in [22] it was -1.72.
As for DKIAQLKQEIAELEQEIAELKWKNAQLKQ [4H2576-bA], the interaction score was 1.66 in [23]; -0.116 in assay [24]; -0.0165 in assay [25]; 0.89 in assay [26]; 0.599 in assay [27]; -1.39 in assay [28]. Also, the interaction score was 1.22 in [29]; 0.547 in assay [30]; 1.74 in assay [31]; 0.265 in assay [32]; -1.6 in assay [33]; -0.652 in assay [34]. In addition, the interaction score in assay [35] is 1.26; in [36] it was -0.69; in [37] it was 0.28; in [38], 1.64; in assay [39], -0.614; in [40], 1.32. For the same molecule, the interaction score was 0.345 in [41]; 2.1 in assay [42]; 0.525 in assay [43]; 1.77 in assay [44]; 0.611 in [45]; 0.799 in assay [46]. The interaction score is -0.232 in assay [47]; -0.213 in [48]; -0.678 in [49]; -1.01 in assay [50]; 1.49 in assay [51]; -0.459 in assay [52]. Further, the interaction score in assay [53] was -0.381; in assay [54], 0.662; in [55], 0.163; in assay [56], -0.646; in assay [57], 0.283; in assay [58], 1.25.
As for DKIAQLKQEIAELEQKNAELKWEIAQLKQ [4H2618-bA], the interaction score is 0.484 in assay [25]; 0.0194 in assay [26]; 1.35 in assay [29]; -0.804 in [32]; 0.858 in assay [33]; -2.6 in assay [34]. Also, the interaction score is 0.866 in assay [35]; 1.21 in assay [36]; 1.02 in [37]; 0.72 in assay [38]; -0.735 in [41]; -0.835 in [43]. The interaction score in assay [44] was 0.142; in assay [45] it was 0.854; in assay [47], -0.965; in assay [48], -1.07; in assay [49], 0.769; in assay [50], -1.08. Besides, the interaction score in assay [51] was 0.102; in [52], -0.396; in [53], 0.0328; in assay [54] it was 0.137; in [55], -0.916; in [56] it was 1.61. Besides, the interaction score in [57] was -1.3; in [58], -0.631.
